{"source": "patent US20240392020A1", "about": "(JIANGSU HENGRUI PHARMACEUTICALS, published 2024)", "binders": {"B1": {"name": "H4 (antibody)", "heavy": "not shown", "light": "DIQMTQSPSSVSASVGDRVTITCRASQDIANYLSWYQQKPGKSPKLLIYGTSNLEVGVPSRFSGSRSGTDFTLTISSLQPEDFATYYCLQDKEFPRTFGGGTKVEIKQGSPPCFLRFPRPVRVVSGAEAELKCVVLGEPPPVVVWEKGGQQLAASERLSFPADGAEHGLLLTAALPTDAGVYVCRARNAAGEAYAAAAVTVLEPP"}, "B2": {"name": "R10 (antibody)", "heavy": "not shown", "light": "DIQMTQSPSSLSASVGDRVTITCLASEGISSYLAWYQQKPGKAPKLLIYGANSLQTGVPSRFSGSGSATDYTLTISSLQPEDFATYYCQQSYKFPNTFGQGTKVEVKSGAPRFLTRPKAFVVSVGKDATLSSQIVGNPTPQVSWEKDQQPVAAGARFRLAQDGDLYRLTILDLALGDSGQYVSRARNAIGEAFACVGLQVDAEA"}, "B3": {"name": "R13 (antibody)", "heavy": "not shown", "light": "DIQMTQSPSSLSASVGDRVTITCLASEGISSYLAWYQQKPGKAPKLLIYGANSLQTGVPSRFSGSGSATDYTLTISSLQPEDFATYYCQQSYKFPNTFGQGTKVEVKSGAPRFLTRPKAFVVSVGKDATLSSQIVGNPTPQVSWEKDQQPVAAGARFRLAQDGDLYRLTILDLALGDSGQYVSRARNAIGEAFACVGLQVDAEA"}, "B4": {"name": "R17 (antibody)", "heavy": "not shown", "light": "DIQMTQSPSSLSASVGDRVTITCLASEGISSYLAWYQQKPGKAPKLLIYGANSLQTGVPSRFSGSGSATDYTLTISSLQPEDFATYYCQQSYKFPNTFGQGTKVEVKSGAPRFLTRPLAFVVSVGKDATLSSQIVGNPTPQVSWEKDQQPVAAGARFRLAQDGDLYRLHILDLALGDSGQYVSRARNAIGEAFACVGLQVDAEA"}, "B5": {"name": "R16 (antibody)", "heavy": "not shown", "light": "DIQMTQSPSSLSASVGDRVTITCLASEGISSYLAWYQQKPGKAPKLLIYGANSLQTGVPSRFSGSGSATDYTLTISSLQPEDFATYYCQQSYKFPNTFGQGTKVEVKSGAPRFLTRPLAFVVSVGKDATLSSQIVGNPTPQVSWEKDQQPVAAGARFRLAQDGDLYRLKILDLALGDSGQYVSRARNAIGEAFACVGLQVDAEA"}, "B6": {"name": "R14 (antibody)", "heavy": "not shown", "light": "DIQMTQSPSSLSASVGDRVTITCLASEGISSYLAWYQQKPGKAPKLLIYGANSLQTGVPSRFSGSGSATDYTLTISSLQPEDFATYYCQQSYKFPNTFGQGTKVEVKSGAPRFKTRPKAFVVSVGKDATLSSQIVGNPTPQVSWEKDQQPVAAGARFRLAQDGDLYRLKILDLALGDSGQYVSRARNAIGEAFACVGLQVDAEA"}, "B7": {"name": "R15 (antibody)", "heavy": "not shown", "light": "DIQMTQSPSSLSASVGDRVTITCLASEGISSYLAWYQQKPGKAPKLLIYGANSLQTGVPSRFSGSGSATDYTLTISSLQPEDFATYYCQQSYKFPNTFGQGTKVEVKSGAPRFKTRPKAFVVSVGKDATLSSQIVGNPTPQVSWEKDQQPVAAGARFRLAQDGDLYRLHILDLALGDSGQYVSRARNAIGEAFACVGLQVDAEA"}, "B8": {"name": "R19 (antibody)", "heavy": "not shown", "light": "DIQMTQSPSSLSASVGDRVTITCLASEGISSYLAWYQQKPGKAPKLLIYGANSLQTGVPSRFSGSGSATDYTLTISSLQPEDFATYYCQQSYKFPNTFGQGTKVEVKDQPQFSGAPRFKTRPKAFVVSVGKDATLSSQIVGNPTPQVSWEKDQQPVAAGARFRLAQDGDLYRLKILDLALGDSGQYVSRARNAIGEAFACVGLQVDAEA"}, "B9": {"name": "R22 (antibody)", "heavy": "not shown", "light": "DIQMTQSPSSLSASVGDRVTITCLASEGISSYLAWYQQKPGKAPKLLIYGANSLQTGVPSRFSGSGSATDYTLTISSLQPEDFATYYCQQSYKFPNTFGQGTKVEVKDQPQFSGAPRFRTRPKAFVVSVGKDATLSSQIVGNPTPQVSWEKDQQPVAAGARFRLAQDGDLYRLHILDLALGDSGQYVSRARNAIGEAFACVGLQVDAEA"}, "B10": {"name": "R21 (antibody)", "heavy": "not shown", "light": "DIQMTQSPSSLSASVGDRVTITCLASEGISSYLAWYQQKPGKAPKLLIYGANSLQTGVPSRFSGSGSATDYTLTISSLQPEDFATYYCQQSYKFPNTFGQGTKVEVKDQPQFSGAPRFRTRPKAFVVSVGKDATLSSQIVGNPTPQVSWEKDQQPVAAGARFRLAQDGDLYRLKILDLALGDSGQYVSRARNAIGEAFACVGLQVDAEA"}, "B11": {"name": "R18 (antibody)", "heavy": "not shown", "light": "DIQMTQSPSSLSASVGDRVTITCLASEGISSYLAWYQQKPGKAPKLLIYGANSLQTGVPSRFSGSGSATDYTLTISSLQPEDFATYYCQQSYKFPNTFGQGTKVEVKDQPQFSGAPRFLTRPKAFVVSVGKDATLSSQIVGNPTPQVSWEKDQQPVAAGARFRLAQDGDLYRLTILDLALGDSGQYVSRARNAIGEAFACVGLQVDAEA"}, "B12": {"name": "R20 (antibody)", "heavy": "not shown", "light": "DIQMTQSPSSLSASVGDRVTITCLASEGISSYLAWYQQKPGKAPKLLIYGANSLQTGVPSRFSGSGSATDYTLTISSLQPEDFATYYCQQSYKFPNTFGQGTKVEVKDQPQFSGAPRFKTRPKAFVVSVGKDATLSSQIVGNPTPQVSWEKDQQPVAAGARFRLAQDGDLYRLHILDLALGDSGQYVSRARNAIGEAFACVGLQVDAEA"}, "B13": {"name": "B3 (antibody)", "heavy": "not shown", "light": "SSELTQDPAVSVALGQTVRVTCQGDSLRSYYASWYQQKPGQAPVLVIYGKNNRPSGIPDRFSGSSSGNTASLTITGAQAEDEADYYCSSRDSSGNHWVFGGGTELTVLSEAPRFLTRPLAFVVSEGKDATLSSQIVGDPPPEVTWEKDQQPITAGARFRLAQDGDVYRLEILDLQLSDSGQYVSRARNAIGEAFACVGLQVDAEG"}, "B14": {"name": "B2 (antibody)", "heavy": "not shown", "light": "SSELTQDPAVSVALGQTVRVTCQGDSLRSYYASWYQQKPGQAPVLVIYGKNNRPSGIPDRFSGSSSGNTASLTITGAQAEDEADYYCSSRDSSGNHWVFGGGTELTVLSGAPRFLTRPKSYTVSVGKDASLSSQIVGNPTPQVSWEKDQQPVAAGARFRLAQDGDLYRLKILDLALGDSGQYVSRARNAIGEAFACVGLQVDAEA"}, "B15": {"name": "B7 (antibody)", "heavy": "not shown", "light": "SSELTQDPAVSVALGQTVRVTCQGDSLRSYYASWYQQKPGQAPVLVIYGKNNRPSGIPDRFSGSSSGNTASLTITGAQAEDEADYYCSSRDSSGNHWVFGGGTELTVLSGAPRFLTRPLAFVVSVGKDATLSSQIVGNPTPQVSWEKDQLPVTAGARFRLAQDGDLYRLKILDLTLSDSGQYVSRARNAIGEAFACVGLEVGAEA"}, "B16": {"name": "B4 (antibody)", "heavy": "not shown", "light": "SSELTQDPAVSVALGQTVRVTCQGDSLRSYYASWYQQKPGQAPVLVIYGKNNRPSGIPDRFSGSSSGNTASLTITGAQAEDEADYYCSSRDSSGNHWVFGGGTELTVLSGAPRFLTRPLAFVVSVGKDATLSSQIVGNPTPQVSWEKDKQPVTAGARFRLAQDGDLYRLKILDLQLSDSGQYVSRARNAIGEAFACLGLQVDAEA"}, "B17": {"name": "B6 (antibody)", "heavy": "not shown", "light": "SSELTQDPAVSVALGQTVRVTCQGDSLRSYYASWYQQKPGQAPVLVIYGKNNRPSGIPDRFSGSSSGNTASLTITGAQAEDEADYYCSSRDSSGNHWVFGGGTELTVLSGAPRFLTRPLAFVVSVGKDATLSSQIVGNPTPQVSWEKDQLPVTAGARFRLAQDGDLYRLKILDLTLSDSGQYVSRARNAIGEAFACVGLEVGAEA"}, "B18": {"name": "B5 (antibody)", "heavy": "not shown", "light": "SSELTQDPAVSVALGQTVRVTCQGDSLRSYYASWYQQKPGQAPVLVIYGKNNRPSGIPDRFSGSSSGNTASLTITGAQAEDEADYYCSSRDSSGNHWVFGGGTELTVLSGAPRFLTRPLAFVVSVGKDATLSSQIVGNPTPQVSWEKDQLPVTAGARFRLAQDGDLYRLKILDLTLSDSGQYVSRARNAIGEAFACVGLEVGAEA"}, "B19": {"name": "B1 (antibody)", "heavy": "not shown", "light": "SSELTQDPAVSVALGQTVRVTCQGDSLRSYYASWYQQKPGQAPVLVIYGKNNRPSGIPDRFSGSSSGNTASLTITGAQAEDEADYYCSSRDSSGNHWVFGGGTELTVLSGAPRFLTRPLAFVVSVGKDATLSSQIVGNPTPQVSWEKDQQPVAAGARFRLAQDGDLYRLKILDLALGDSGQYVSRARNAIGEAFACVGLQVDAEA"}, "B20": {"name": "B8 (antibody)", "heavy": "not shown", "light": "SSELTQDPAVSVALGQTVRVTCQGDSLRSYYASWYQQKPGQAPVLVIYGKNNRPSGIPDRFSGSSSGNTASLTITGAQAEDEADYYCSSRDSSGNHWVFGGGTELTVLSGAPRFLTRPLSYVVSVGKDASLSSQIVGNPTPQVSWEKDQLPVTAGARFRLAQDGDLYRLKILDLQLSDSGQYVSRARNAIGEAFACVGLEVGAEA"}, "B21": {"name": "N0 (antibody, human IgG1, kappa)", "heavy": "not shown", "light": "EIVLTQSPGTLSLSPGERATLSCRASQNINNRFLAWYQQRPGQAPRLLIYAASSRATGVPDRFSGSGSGTDFTLTISRLEAEDFAMYHCQQYGSFPRTFGQGTMVDIKRTVAAPSVFIFPPSDEQLKSGTASVVCLLNNFYPREAKVQWKVDNALQSGNSQESVTEQDSKDSTYSLSSTLTLSKADYEKHKVYACEVTHQGLSSPVTKSFNRGEC"}}}
{"target": "T1, hIL-5 (human, UniProt P05113 20-134)", "T1 construct": "bought", "test": "ELISA", "units": {"EC50": "nM"}, "experimental": "(§1) For an antibody targeting a soluble protein, the binding activity of the antibody against the soluble protein was detected by ELISA. […] After the blocking was completed, the blocking solution was discarded; and the plate was washed 3 times with a PBST buffer (pH 7.4, PBS containing 0.1% tween-20). 100 μL of the antibody solution diluted in a gradient was added to each well, and the mixture was incubated at 37° C. for 1 h. After the incubation was completed, the plate was washed 3 times with PBST. […] The plate was washed 3 times with PBST. […] The reaction was stopped by adding 50 μL of 1 M H₂SO₄ to each well. The absorbance values at 450 nm were read on a microplate reader, the binding curves of the antibodies to an antigen were fitted with software, and the EC₅₀ values were calculated."}
{"binder": "B1", "EC50": 2.7}
{"target": "T1, hIL-5", "test": "ELISA", "remark": "another data set of the same source", "units": {"EC50": "nM"}, "experimental": "as §1"}
{"binder": "B1", "EC50": 3.28}
{"binder": "B2", "EC50": 3.2}
{"target": "T1, hIL-5", "test": "ELISA", "remark": "another data set of the same source", "units": {"EC50": "nM"}, "experimental": "as §1"}
{"binder": "B2", "EC50": 0.37}
{"binder": "B3", "EC50": 0.4}
{"binder": "B4", "EC50": 0.4}
{"binder": "B5", "EC50": 0.33}
{"binder": "B6", "EC50": 0.2}
{"binder": "B7", "EC50": 0.3}
{"binder": "B8", "EC50": 0.36}
{"binder": "B9", "EC50": 0.39}
{"binder": "B10", "EC50": 0.37}
{"binder": "B11", "EC50": 0.44}
{"binder": "B12", "EC50": 0.39}
{"target": "T2, hBAFF (human, UniProt Q9Y275 134-285)", "T2 construct": "bought", "test": "ELISA", "units": {"EC50": "nM"}, "experimental": "as §1"}
{"binder": "B13", "EC50": 0.5}
{"binder": "B14", "EC50": 0.19}
{"binder": "B15", "EC50": 0.35}
{"binder": "B16", "EC50": 0.25}
{"binder": "B17", "EC50": 0.19}
{"binder": "B18", "EC50": 0.29}
{"binder": "B19", "EC50": 0.28}
{"binder": "B20", "EC50": 0.16}
{"target": "T3, CEA on MKN45 cells (UniProt P06731 35-685)", "T3 construct": "whole, on cells", "T3 sequence (looked up)": "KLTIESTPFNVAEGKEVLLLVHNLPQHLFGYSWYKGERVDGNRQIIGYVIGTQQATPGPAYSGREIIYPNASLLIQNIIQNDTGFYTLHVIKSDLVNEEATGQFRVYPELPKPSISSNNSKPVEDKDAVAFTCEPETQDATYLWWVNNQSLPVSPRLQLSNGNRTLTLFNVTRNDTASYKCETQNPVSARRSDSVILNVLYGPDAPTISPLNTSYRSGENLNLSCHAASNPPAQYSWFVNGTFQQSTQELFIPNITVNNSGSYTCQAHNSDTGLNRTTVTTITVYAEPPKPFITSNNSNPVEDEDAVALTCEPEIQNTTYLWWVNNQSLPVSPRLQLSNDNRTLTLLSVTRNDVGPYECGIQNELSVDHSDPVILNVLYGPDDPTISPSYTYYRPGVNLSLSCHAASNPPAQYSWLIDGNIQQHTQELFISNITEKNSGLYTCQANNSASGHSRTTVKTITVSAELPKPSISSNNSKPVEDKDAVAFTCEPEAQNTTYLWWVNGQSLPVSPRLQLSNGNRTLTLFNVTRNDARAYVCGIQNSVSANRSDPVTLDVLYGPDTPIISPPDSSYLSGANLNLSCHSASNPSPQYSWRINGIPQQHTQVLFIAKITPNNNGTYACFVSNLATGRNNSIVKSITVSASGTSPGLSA", "test": "FACS, MKN45 cells", "units": {"EC50": "nM"}}
{"binder": "B21", "EC50": 0.82}
